experiment: yeast display, Sf9 membrane polyspecificity reagent, FACS + sequencing; frameworks hold sequencing errors
Summary of the method: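 Genes from sorted yeast were amplified by colony PCR, read by MiSeq 2 × 250 sequencing and filtered on CDR length. These cells carried a synthetic nanobody library in Saccharomyces cerevisiae BJ5465 and were sorted by FACS into low and high (top ~1%) gates on anti-HA and streptavidin fluorescence. Polyreactivity is labelled according to the gate of origin.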

| Sequence | polyreactivity (PSR sort gate) |
| --- | --- |
| QVQLVESGRGLVQAGGSLRLSCAASGSTFPPSAMGWYRQAPGKERELVAAIDVSGGTTFYADSVKGRFTISRDNAKNTVYLQMNSLKPEDTAVYYCAIGSVSARFEYWGQGTQVTVSS | low polyreactivity |
| QVQLVESGRGLVQAGGSLRLSCAASGSTFRGNAMGWYRQAPGKERELVAAISVTGGSTYYADSVKVRFTISRDNAKNTVYLQMNSLKPEDTAVYYCADRVQRGQYSFVRDYYYWGQGTQVTVSS | high polyreactivity |
| QVQLVESGRGLVQAGGSLRLSCAASGSTFRYYAMGWYRQAPGKERELVAAISYSGGSTYYADSVKGRFTISRDNAKNTVYLQMNSLKPEDTAVYYCASSWYSIGKRYYYWGQGTQVTVSS | high polyreactivity |
| QVQLVESGRGLVQAGGSLRLSCAASGSTFVRNAMGWYRQAPGKERELDAAITSSGGSTYYADSVKGRFTISRDYAKNTVYVQMNRLKPEDTAVYYCGKRRYYRYDYWGLGTQVTVSS | low polyreactivity |
| QVQLVESGRGLVQAGGSLRLSCAASGSTISFYAMGWYRQAPGKERELVAAISFRGGRTYYADSVKGRFTISRDNAKNTVYLQMNSLKPEDTAVYYCNAERYYRYWDKQEDYWGQGTHVTVSS | high polyreactivity |
| QVQLVESGRGLVQAGGSLRLSCAASGTTCLYYTMGWYRQAPGKERELVASISYSGGRTYYADSVKGRFTISRDNAKNTVYLQMNSLKPEDTAVYYCNKKRYYDGYDYWGQGTQVTVSS | high polyreactivity |
| QVQLVESGRGLVQAGGSLRLSCAASVGTFDKNAMGCYRQAPGNERELVAALTYGGGSTYYADSVKGRFTISRDNAKNTVYLQMNSLKPEDTAVYYCAVAIITYPYATGSSYDYWGQGTQVTVSS | low polyreactivity |
| QVQLVESGRGLVQAGGSLRLSCAPSGIIFTSYAMGWYRQAPGKESEFVAAITRSGSRTYYADSVKGRFTISRDNAKNTVYLQMNRLKPEDTAVYYCAARTFHDSSDSYAGGYWGQGTQVTVSS | low polyreactivity |
| QVQLVESGRGLVQAGGSLRLSCAPSGLIFRYYAMGWYRQAPGKEREFVAAISGRGASTYYADSVKGRFTISRDNAKNTVYLQMNSLKPEDTAVYYCATYFPSAVVAFHMDYWGQGTQVTVST | high polyreactivity |
| QVQLVESGRGLVQAGGSLRLSCASSGSTCVRNVMGWYRQAPGKERELVAAISRRGGGTYYADSVKGRFTISRDNAKNTVYLQMNSLKPEDTAVYYCATGSIAAGHYAYNYWGQGTQVTVSS | high polyreactivity |
| QVQLVESGRGLVQAGGTLRISFADSGRIFGNYAMGRYRQAPGKERELVAAIPWRGGRTRYADSVKGRFTISRDNAKNTVYLQMNSLKPEDTAVYYCAAPYTSSGPDDYWGQGTQVTVSS | high polyreactivity |
| QVQLVESGRGLVQAGGTLRLSCAASGSTFGSYAMGWYRQAPGKEREFVATISRSGGRTYYAASVKGRFTISRDNAKNTVYFQMNSLKPEDTAVYYCATDRRYWIGYDYWGPGTQVTVSS | high polyreactivity |
| QVQLVESGRGLVQAGVSLRLSCAASGPTFRGNVMGRYRKAPGKERELVAAINWTGSSTYYADSVKGGFTISRDNAKNTVYLQMNSLKPEDTAVDYCATRIGPHGGGLPRDYWGQGTQVTVSS | low polyreactivity |
| QVQLVESGRGLVQTGGSLRLSCAASGLVNAMGWYRQAPWKERELVAAISSGGSTYYADSVKGRFTISRDNAKNTVYLQMNSLKPEDTAVYYCNAVYFRHYGYGYWGQGTQVTVSS | low polyreactivity |
| QVQLVESGRRLVQAGGSLRLSCAASGRIFGAYARGWSRQAPGKEREMVAAITSRGGNTYYADSVKGRFTISRDNAKNTVYLQMNSLKPEDTAVYYCRYDIWVWWSGAYDYWGQGTQVTVSS | low polyreactivity |
| QVQLVESGTGLVQAGGSLRLSCAASGSIFAYYAMGWYRHAPGKERELVAAISSRGGNTYYADSVKGRFTISRDNAKNNVYLQMNSLKPEDTAVYYCAADYQYSYGEYDYWGHGTQVTVSS | high polyreactivity |
| QVQLVESGVCLVQAGGSLRLSCAASGIIISTYAMGWYRQAPGKERELVAAITWGGTRTNYADSVKGRFTISRDNAKNTVYLQMKSLKPEDTAVYYCAASYVRDSYTHGSWGQGTQVTVSS | low polyreactivity |
| QVQLVESGVGIVQAGGSLRLICAASGSTFTIYAMGWYRQAPGKERELVAAITWNGGSTYYADSVKGRFTISRDNAKKTVYLQMNSLKPEDTAVYYCAAKFRYQYVRVAREYYYWGQGTQVTVSS | high polyreactivity |
| QVQLVESGVGIVQAGGSLRLSCAASGRIFFTYAMVWYRQAPGKERELVASITGSGGSTYYADSVKGRFTISRDNAKNTVYLQMNSLKPEDTAVYYCAAALFRRQLYRKFYYWGQGTQVSVSS | low polyreactivity |
| QVQLVESGVGIVQAGGSLRLSCAASGRIISGYAMGWYRHAPGKERELVATISSGGGTNYADSVKGRFTISRDNAKNTVYLQMNSLKPEDTAVYYCNKAWGYWSIRGVTHRYGYWGQGTQVTVSS | high polyreactivity |
| QVQLVESGVGLVKAGGSLRLSCAASGSTFRGYAMGWYRQAPGKERELVAAITYISDTTNYADSVKGRFTISRDNAKNTVYLQMNSLKPDDTAVYYCNAYYDGVWRYTSQETGDHWGQGTQVTVSS | low polyreactivity |
| QVQLVESGVGLVKAGGSLRLTCAASGSIFDNYPMGWYIQAPGKERELVAAISGRGGSTYYADSVKGRFTISRDNAKNSVYLQMNSLKPEVTAVYYCNALVHQTYYDYEYWGQGTQVTVSS | high polyreactivity |

| Sequence | polyreactivity (PSR sort gate) |
| --- | --- |
| QVQLVESGVGLVQAGGILRLSCAASGFIFCQYSMGWYRQAPWKERELVAAISSVGTTNYADSVKGSFTISRDNAKNTVYLQMNSLKPEDTAVYYCNADSLVEYWDYDYWGQGTQVTVSS | low polyreactivity |
| QVQLVESGVGLVQAGGSHRFICAASGIIFYSYAMGWYRQAPGKEREFVAAITNSDGSTYYADTVKRRFTISRDNAKNTVYLQMNSLKPVDTAVYMYYWGQGTQVTVSS | low polyreactivity |
| QVQLVESGVGLVQAGGSLLLSCAASGRTFSYNPMGSYRQAPGKERELVALISSGGSTNYADSVKGRFTISRDNAKNTVYLQMNSLKPEDTALYYCNAGSYVWEEDYWGQGTQVTVSS | high polyreactivity |
| QVQLVESGVGLVQAGGSLPLSCAASGRTFRYYTMGSYRQAPGKERELVAAITQSGDSTYYADSVKGRFTISRDNAKNTFYLQMNSLKPEDTAVYYCNKAWRRRGLYDYWGQGTQVTVSS | high polyreactivity |
| QVQLVESGVGLVQAGGSLRLICAATGYTFKRTAMRWSRQAPGKEREFVAAINIRGSSTYYADSVKGRFTISRDNPKNTVYLQMISLKPEDTAVYYCNAVTRYGYYWGEGTQVTVSS | high polyreactivity |
| QVQLVESGVGLVQAGGSLRLSCAASGCIFIKYAMGWSRQAPGKERELVASITISSGRTYYADSVKGRFTISRDNAKNTVYLQMISLKPEDTAVYYCAAVSLWYSAYEYWGQGTQVTVSS | high polyreactivity |
| QVQLVESGVGLVQAGGSLRLSCAASGFIFHRYAMGWYRQAPGKERELVAGITSSGGSTYYADSVKGRFTISRDNAKNTVYLQMNSLKPEDTAVYYCNADSWLYRFFGYDYWGQGTQVTVSS | low polyreactivity |
| QVQLVESGVGLVQAGGSLRLSCAASGFIFYSYAMGWYRQAPGKERELVAAISRSGGITYYADSVKGRFTISRDNAKNTVYLQMNSLKPEDTAVYYCAKVGRGVSSIKDMDSWGQGTQVTVSS | high polyreactivity |
| QVQLVESGVGLVQAGGSLRLSCAASGFTFRYYAMGWYRQAPGKERELVAAIRSGGRTYYADSVKGRFTISRDNAKNTVYLQMNSLKPEDTAVYYCNAKYKYSRGYDYWGQGTQVTVSS | high polyreactivity |
| QVQLVESGVGLVQAGGSLRLSCAASGGIFVPYAMGWYRQAPGKEREWVARIRSGGTTNYADSVKGRFTISRDNAKNTVYLQRNSLKPEDTAVYYCAVAAGIPQRRDYYWGQGTQVTVSS | high polyreactivity |
| QVQLVESGVGLVQAGGSLRLSCAASGGTFPYYAMGWYRQAPGKERELVAAISRSGARTYYADSVKGRFTISRDNAKNTVYLQMNSLKPEDTAVYYCATDNTYGYDYWGQGTQVTVSS | high polyreactivity |
| QVQLVESGVGLVQAGGSLRLSCAASGIIFDDYAMGWYRQAPGKERELVAGINESGDSTYYADSVKGRFTISRDNAKNTVYLQMNSLKPEDTAVYYCAAQLYYWWYDYWGQGTQVTVSS | high polyreactivity |
| QVQLVESGVGLVQAGGSLRLSCAASGIIFRYYAMGWYRQAPGKERELVAAISSSGVSTYYADSVKGRFTISRDNAKNTVYLQMNSLKPEDTAVYYCNAVIWVRQYFSRSSSNYWGQGTQVTVSS | high polyreactivity |
| QVQLVESGVGLVQAGGSLRLSCAASGIIFYDYVMGWYRPAPGKEWELVAAISRSGGSTYYADSVKGRFTISRDNAKNTVYLQMNSLKPEDTAVYYCAADTVVTEMEYCGQGTQVTVSS | high polyreactivity |
| QVQLVESGVGLVQAGGSLRLSCAASGISFLVYAMGWYRQAPGKERELVAAISADAGGTYYADSVKGRFTISRDNAKNNVYFQMNSLKPEDTAVYYCNVDGRSDGDDYWGQGTQVTVSS | low polyreactivity |
| QVQLVESGVGLVQAGGSLRLSCAASGISFVGNAMGWYRQAPGKERELVASINSGGSTYYADSVKGRFTISRDNAKYTVYLQMNSLKPADTAVYYCAVEEDRYYYDDYDYWGQGTQVTVSS | low polyreactivity |
| QVQLVESGVGLVQAGGSLRLSCAASGITFDENTMGWYIQAPGKERELVAAITEIGGSTYYADSVKGRFTISRDNAKNTVYLQMNSLKPEDTAVYYCNADRWVVRFVDYEYWGQGTQVTVSS | low polyreactivity |
| QVQLVESGVGLVQAGGSLRLSCAASGITFRSYAMGWYRQAPGKERELVAAIRSGGSTSYADSVKGRFTISRDNAKNTVYLQMNSLKPEDTAVYYCAAGGYVPLPDITFWKFGYWGQGTQVTVSS | low polyreactivity |
| QVQLVESGVGLVQAGGSLRLSCAASGLIFYKYAMGWYRQAPGKERELVAAITRGGGSTSYADSVKGRFTISRDNAKNTVYLQMNSLKPEDTAVYYCNAAPYTRALQGEFDYWGQGTQVTVSS | high polyreactivity |
| QVQLVESGVGLVQAGGSLRLSCAASGLTFATNAMGWYRQAPGKERELVAAITGSGGSTNYADSVKGRFTISRDNAKNTVYLQMNSLKPEDTAVYYCAADLLWEPSRGYRGDYWGQGTQVTVSS | low polyreactivity |
| QVQLVESGVGLVQAGGSLRLSCAASGNIFGVYAMGWYRQAPGKERELVATITTGGSTYYADSVKGRFTISRDNAKNTVYLQMNSLKPEDSAVYYCAADVGGGNYVYYGNDYDDGYWGQGTQVTVSS | low polyreactivity |

Reference: the nanobody polyreactivity screen of Harvey et al. (2022)
